Laboratory results from US12331110B2, “Monoclonal antibodies against endotrophin and the use thereof” (THE BOARD OF REGENTS OF THE UNIVERSITY OF TEXAS SYSTEM, priority 2018, dated 2025).

Legend:
[1] = system: ETP transfected MCF7 cells; assay: ETP transfected MCF7 tumor growth in nude mice; format: in vivo
Method: FIGS. 5A-C. Antibody effects on ETP-MCF7 cells in vivo. (FIG. 5A) ETP transfected MCF7 cells (2×10^6 cells) were implanted into nude mice. An estradiol pellet (0.72 mg) was implanted into nude mice. Then (i) 20 mg/kg ETPmAb4, (ii) 10 mg/kg ETPmAb4 with 10 mg/kg control IgG, (iii) 5 mg/kg ETPmAb4 with 15 mg/kg control IgG, (iv) 2 mg/kg ETPmAb4 with 18 mg/kg control IgG, and (v) 20 mg/kg control IgG (twice a week) were injected after 10-days implantation for 5-weeks. Tumor volume was determined by caliper measurement. Data was represented as mean±SD (n=5/group), and *** p<0.0001 by ANOVA followed by Newman-Keuls multiple comparison test. (FIG. 5B) Total RNA was prepared from tumor tissues from ETP transfected MCF7, ETPmAb4 treatment mice. The EMT markers genes Twist, Snail, Cdh2 and Cdh 1 were determined by qRT-PCR, then normalized to GAPDH. E-CAD immunofluorescence staining for tumor tissues from ETP transfected MCF7 and ETPmAb4 treatment tumor. (FIG. 5C) MCF7 and ETP transfected MCF7 cells (2×10^6 cells) were implanted into nude mice. An estradiol pellet (0.72 mg) was implanted into nude mice. Then 20 mg/kg of antibody ETPmAb4 (twice a week), and 2.5 mg/kg of cisplatin (once a week) were injected after 10-days implantation for 6-weeks. Tumor volume was determined by caliper measurement. Data was represented as mean±SD (n=5/group), and *** p<0.0001 by ANOVA followed by Newman-Keuls multiple comparison test.
Animal experiments. NU/NU nude female mice were purchased from Charles River (Crl: NU-Foxnlnu; Strain Code 088 (Homozygous)). Breast cancer cells (2×10^6 cells) were implanted by intraductal injection. All cell lines were mixed on ice with 1×PBS and Matrigel. Then 100 μL of mixture was injected into mice. Tumors were measured twice a week, beginning 10 days after injection, and tumor volume was calculated by length×(width) 2/2 (mm^3).
(§1) Analysis of Tumor Progression. Tumor onset was monitored twice weekly by palpation. Tumor sizes were measured using a digital caliper twice weekly and the volumes were calculated as length× width2)/2. Inguinal tumors were weighted to determine tumor burden. Animals were sacrificed when the tumor burden visibly affected the host, or when the tumors reached the IACUC pre-determined limit of 20 mm along one axis.
As a next step, whether the anti-endotrophin antibodies effectively curb the aggressive tumor growth observed in endotrophin overexpressing MCF-7 cells was examined. To boost the growth rate of the tumor cells, these assays were performed in the presence of estradiol pellets. Cells (2×10^6 cells) were injected into nude mice and their tumor growth was monitored over time, based on a twice weekly injection of either a control monoclonal preparation, or ETPmAb4; in all cases, a total of 20 mg/kg of antibody was used. The dose dependence was tested by either injecting 20 mg/kg of control antibody, 20 mg/kg of ETPmAb4, or a mixture of the two with decreasing levels of control antibody mixed with increasing levels of ETPmAb4.
To test this, MCF7 cells were used with or without endotrophin overexpression, and the cells were transplanted into nude mice, in the presence of estradiol pellets (FIG. 5C). […] As expected, MCF7 cells harboring an excess in endotrophin grew very aggressively (FIG. 5C; red line).

MDA-MB-231 cells = assay: MDA-MB-231 tumor growth in nude mice; format: in vivo
Method: FIGS. 6A-D. The antibody effects on MDA-MB-231 cells in vivo. (FIG. 6A) MDA-MB-231 cells (2×10^6 cells) were implanted into nude mice. Then 2.5 mg/kg of cisplatin and 20 mg/kg of ETPmAb4 antibody (twice a week) were injected after 10-days implantation for 5-weeks. Tumor volume was determined by caliper measurement. The insert reflects a simplified analysis of control antibody versus ETPmAb4 with associated statistics. (FIG. 6B) MDA-MB-231 cells (2×10^6 cells) were implanted into nude mice. Treatment was started when the tumor volume was over 30 mm^3. At that point, 2.5 mg/kg of cisplatin and 20 mg/kg of ETPmAb4 antibody (twice weekly) were injected for 5-weeks. Tumor volumes were determined by caliper measurements. The insert reflects a simplified analysis of control antibody versus ETPmAb4 with associated statistics. (FIG. 6C) SKOV3 cells (2×10^6 cells) were implanted into nude mice. Then 2.5 mg/kg of cisplatin and 20 mg/kg of ETPmAb4 antibody (twice weekly) were injected 10-days after implantation for 5-weeks. Tumor volumes were determined by caliper measurements. The insert reflects a simplified analysis of control antibody versus ETPmAb4 with associated statistics. (FIG. 6D) MDA-MB-231 cells (2×10^6 cells) were implanted into nude mice. Then 2.5 mg/kg of cisplatin, 20 mg/kg of ETPmAb4 antibody and 20 mg/kg of humanized ETPmAb4 antibody (twice a week) were injected after 10-days implantation for 5-weeks. Tumor volume was determined by caliper measurement. […]
Animal experiments. […] Tumors were measured twice a week, beginning 10 days after injection, and tumor volume was calculated by length×(width) 2/2 (mm^3).
as §1, with “Inguinal tumors were weighted to determine tumor burden.” left out, “axis. […]” for “axis.”
After humanization, the binding affinity of hETPmAb4 to endotrophin was measured in Octet RED96. […]

B1: ETP-mAb4: rabbit monoclonal anti-human endotrophin antibody selected for further study; VH SEQ ID NO: 125, VL SEQ ID NO: 126 (antibody, V domains shown)
VH: SSRVKESGGDLVKPGASLTLTCKASGFSFSSGYYICWVRQAPGKGLEWIACIYGGNNNPYYANWVNGRFTTSKTSSTTVTLQMTNLTGADTATYFCARKDINIGGAYELWGPGTLVTISS
VL: ELVMTQTPASVSEPVGGTVTINCQASQSISSSYLSWYQQKPGQPPKLLIYKASTLASGVPSRFKGSGSGTQFSLTISDLECADAATYYCQYSDWANSYGNAFGGGTEVVVK
[1]; 20 mg/kg ETPmAb4 twice a week plus 2.5 mg/kg cisplatin once a week
  lesion growth, combination with cisplatinum: lesion growth was reduced down to essentially baseline
[1]; 20 mg/kg twice a week, estradiol pellet
  tumor growth at the highest dose: almost completely curbing the aggressive tumor growth
[1]; 2-20 mg/kg twice a week, estradiol pellet, vs control IgG
  rate of tumor growth: significantly reduced in a dose-dependent fashion the rate of tumor growth over time
[1]; antibody-treated tumors
  EMT signature in tumor tissue (Twist, Snail, Cdh2, Cdh1 qPCR): reduced EMT signature
MDA-MB-231 cells; 20 mg/kg antibody plus 2.5 mg/kg cisplatin
  lesion growth, combination with cisplatinum: essentially inhibited lesion growth
MDA-MB-231 cells; 20 mg/kg twice a week
  rate of tumor growth, antibody alone: significantly reduced the rate of tumor growth
